# Experimental data as given in the RNAGym collection of RNA variant scans (doi:10.7554/elife.80360).
# B1: Hairpin Ribozyme (parent)
# chain: GUCCUCUUUCACGUGCGCGUGAAAGAGAGAAGUGAACCAGAGAAACACACGUUGUGGUAUAUUACCUGGUA
# Variants of: B1
# Experiment: self-cleavage, relative activity (ratio to wild type); higher = more cleavage; co-transcriptional
row,Variant,self-cleavage
1,U55A G68C,0.098
2,U60G A61U,0.259
3,A59C U63A,0.169
4,U55A U63G,0.142
5,U62C A71G,0.236
6,U62C A71U,0.277
7,G57C U63A,0.165
8,U62G C65U,0.0799
9,G57C C65U,0.192
10,U60G U67G,0.202
11,G56C A71G,0.28
12,A59C,0.171
13,A59U,0.157
14,A59G,0.17
15,U62C U70G,0.126
16,A59U C66G,0.185
17,A59U C66A,0.128
18,U60A A64G,0.353
19,U60A A64U,0.0988
20,U60A A64C,0.206
21,U55G G57A,0.0886
22,U55G G56C,0.107
23,U55G G56U,0.211
24,G57U A64U,0.173

row,Variant,self-cleavage
1,G57U A64G,0.202
2,G57U A64C,0.139
3,G54U U67C,0.106
4,U55C G57A,0.11
5,U58G,0.788
6,U58C,0.994
7,U58A,0.742
8,U60A U62G,0.0972
9,U60A U62C,0.373
10,U60A U62A,0.0542
11,U62C C66U,0.189
12,U62C C66G,0.213
13,U58G U63C,0.271
14,A59C A71C,0.304
15,U55C U60C,0.4
16,U62G U67C,0.133
17,U62G U67G,0.127
18,U62G U70A,0.163
19,G57C A64U,0.095
20,U58A G68C,0.194
21,U58G G69C,0.142
22,U58G G69A,0.292
23,G56U U67C,0.111
24,G56U U67A,0.23

row,Variant,self-cleavage
1,G56U U67G,0.12
2,A61C U62C,0.166
3,U62C G69A,0.112
4,G56C G68C,0.236
5,G57C U67C,0.114
6,G57C U67G,0.123
7,G56C A64C,0.104
8,G56C A64G,0.148
9,A61G U62G,0.128
10,U58A C66U,0.335
11,G56C A61C,0.109
12,U58G A71U,0.455
13,U58G A71G,0.935
14,U58G A71C,1.07
15,G56A A59C,0.169
16,G57C G69A,0.135
17,G57C G69C,0.142
18,A61U U67G,0.129
19,A61U U67C,0.175
20,A61U U67A,0.178
21,U55C G68A,0.166
22,U55A A64G,0.195
23,U62A U70G,0.16
24,U60A C66A,0.365

row,Variant,self-cleavage
1,U60A C66U,0.274
2,U55A G69C,0.217
3,U58C G68C,0.243
4,G56A C65U,0.104
5,A59U A64U,0.191
6,G56U A59C,0.135
7,G56U A59U,0.171
8,G57C G68U,0.172
9,U63G C66A,0.119
10,U63G C66U,0.109
11,U55G C66G,0.251
12,A61G U67A,0.328
13,U58A A64G,0.247
14,A61U U70G,0.261
15,A61U U70C,0.231
16,G56U G68C,0.157
17,G56U G68A,0.183
18,A61U A71U,0.171
19,U60G C66G,0.261
20,U62C U63C,0.168
21,U62C U63A,0.21
22,A59G U63C,0.134
23,U58C U70C,0.945
24,A59C C66U,0.107

row,Variant,self-cleavage
1,U55G C65G,0.256
2,U55G C65U,0.0906
3,U60G G69A,0.0995
4,U60G G69C,0.317
5,U55G G69U,0.25
6,U55C U63G,0.119
7,U55C U63A,0.18
8,A61C U63A,0.177
9,A59C U62A,0.159
10,G57U C65G,0.134
11,G57U A61G,0.296
12,U60G G68C,0.127
13,U55G A59U,0.156
14,A59C U60G,0.274
15,A59C U60A,0.223
16,U62A C66U,0.143
17,U62A C65U,0.204
18,U62A C65A,0.165
19,U55G U58C,0.651
20,U58C U67G,0.241
21,G56A U70G,0.254
22,G56A U63C,0.286
23,G56A U63G,0.0781
24,U55G A61G,0.0963

row,Variant,self-cleavage
1,G56C U62G,0.129
2,G57C A59U,0.159
3,G57C A59G,0.244
4,G57A A61U,0.143
5,G57A A61C,0.155
6,G57A A61G,0.169
7,G57A G69A,0.122
8,U58G A64U,0.218
9,G57A U62G,0.273
10,G57A U63A,0.131
11,A61C C65G,0.189
12,A61G U70G,0.156
13,A59C G69C,0.216
14,U58C C66G,0.154
15,A59G G69C,0.161
16,A59G G68C,0.144
17,G56C A59C,0.154
18,G56C A59G,0.205
19,U55C A61U,0.281
20,G56C G69U,0.313
21,G56C G69C,0.12
22,U58C U62A,0.24
23,G56U U63C,0.169
24,A61C G69C,0.0992

row,Variant,self-cleavage
1,U60C C65U,0.909
2,U60C C65G,0.531
3,A59U U67G,0.143
4,U62A U67G,0.173
5,A61C A71G,0.286
6,A61U C66G,0.233
7,A59G A71C,0.444
8,A59U C65A,0.19
9,U55A U67G,0.27
10,U55A U67A,0.219
11,U60G A64C,0.186
12,U60G A64G,0.335
13,G56A A61G,0.2
14,G56A A61C,0.112
15,A59U G69C,0.323
16,A59U G69A,0.182
17,A59U G69U,0.191
18,G56A G57U,0.176
19,U63A U70C,0.36
20,A59G C66U,0.0625
21,U58C A71G,1.31
22,U58C A71U,0.935
23,G56U U70C,0.271
